Assays:
[1] = target: RSV F protein of subtype A (strain A2) on recombinant mKate-RSV virus (Respiratory syncytial virus subtype A …, UniProt P03420 26-574); assay: cell-based or functional assay
[2] = target: RSV F protein of subtype B (18537) on recombinant mKate-RSV virus (Respiratory syncytial virus subtype B …, UniProt P13843 26-574); assay: cell-based or functional assay
[3] = target: T1, RSV F subtype A, furin-cleaved ectodomain stabilized in the postfusion conformation (F ΔFP) (Respiratory syncytial virus subtype A, UniProt P03420 26-109; P03420 147-524); assay: BLI, IgG on AHQ sensor, 100 nM antigen
T1 construct: extracellular domain; Trimeric soluble antigen; also called Postfusion subtype A

[4] = target: T2, RSV F subtype B, furin-cleaved ectodomain stabilized in the postfusion conformation (F ΔFP) (Respiratory syncytial virus subtype B); assay: BLI, IgG on AHQ sensor, 100 nM antigen
T2 construct: extracellular domain; Trimeric soluble antigen; also called Postfusion subtype B

[5] = target: T3, RSV F subtype B, furin-cleaved ectodomain stabilized in the prefusion conformation (DS-Cav1) (Respiratory syncytial virus subtype B); assay: BLI, IgG on AHQ sensor, 100 nM antigen
T3 construct: extracellular domain; Trimeric soluble antigen; also called Prefusion subtype B

Binder	Neut IC50 (µg/ml) subtype A [1]	Neut IC50 (µg/ml) subtype B [2]	Kd [3]	Kd [4]	Kd [5]
ADI-18911 (antibody, V domains shown, full-length IgG from yeast) VH: QVQLVESGAEARKPGESLKISCKASGYSFTNYWIGWVRQMPGKGLEWMGVIYPADSDTRYSPSFKGQVTISADKSISTAYLQWTRLKASDTAVYFCARLGIGAAARNYWGQGTLVTVSS VL: DIQVTQSPSSLSASVGDRVTITCQASQDISDSLNWYQQKPGKAPNLLIYDASKSETGVPSRFSGSGSGTDFTFTISSLQPEDLATYYCLQFDNLPPTFGQGTRLEIK	0.301 µg/mL	4.85 µg/mL	353 pM	280 pM	–
ADI-18951 (antibody, V domains shown, full-length IgG from yeast) VH: QVQLVQSGGGLVQPGGSLRLSCAASGFAFSDYTMSWVRQAPGKGLEWVSSVSGTGGTSYYADSVNGRFAISRENSKNTLFLQMDSLRAEDTATYYCAKDGLRDVSRVYYIDVWGKGTTVTVSS VL: QPVLTQPASVSGSPGQSITISCTGTSRDIGSHDSVSWYQQKPGKAPKLIIYAVRNRPSGLSNRFSGSKSGNTASLTISGLQTEDEGDYYCSSYRNGNALGVFGTGTKVTVL	3.4 µg/mL	> 10 µg/mL	–	1130 pM	5350 pM
ADI-18952 (antibody, V domains shown, full-length IgG from yeast) VH: QVQLVESGGGLVQPGGSLRLSCAASGFAFSNYAMSWVRQAPGKGLEWVSSVSGTGGTTYYADSVNGRFAISRENSRNTLYLQMDSLRVEDTATYYCAKDGLRDLSRVYYIDVWGKGATVTVSS VL: QSVLTQPASVSGSPGQSITISCTGTSRDIGSHDYVSWYQQHPGKAPKLIIYGVNNRPSGLSNRFSGSKSGNTASLTISGLQTEDEGDYYCSSYRNGNTLGVFGTGTKLTVL	1.59 µg/mL	2.75 µg/mL	–	633 pM	1010 pM
ADI-18933 (antibody, V domains shown, full-length IgG from yeast) VH: QVQLVESGAEVKKPGASVKVACTASGYAFTNYNIHWVRLAPGQGLEWMAIINPGSGGTDYSEKFQGRLTLTSDTSTSTVYMTLGSLRYEDTAFYYCARRGYPDSGSYPLDYWGQGTLVTVSS VL: DIVMTQSPSSLSASLGDRVTITCRAGRSIATYLNWYQQKPGKAPKLLIYGASSLQSGVPSRFSGSGSGTHFTLTISSLQPEDFATYYCQQSYIRPITFGGGTKVEIK	0.075 µg/mL	0.137 µg/mL	20000 pM	616 pM	–
ADI-18895 (antibody, V domains shown, full-length IgG from yeast; also called Antibody Number 250; Ab # 250) VH: QVQLVQSGPEVKKTRESLKIYCKGSGYSFISHWIGWVRQKPGKGLEWMGIIYPGDSDTRYSPSFQGQVAISADKSINTAYLQWSSLKSSDTAIYYCASVMLRGIMWGQGTLVTVSS VL: DIRLTQSPSSLSASVGDRVTITCQASQDISKYLNWYQQKPGKAPKLLIYDASNLETGVPSRFSGSGSGTDFTFTISSLQPEDIATYYCQPYDNLPPPLTFGGGTKLEIK	2.3 µg/mL	> 10 µg/mL	2370 pM	486 pM	–
ADI-18973 (antibody, V domains shown, full-length IgG from yeast) VH: QVQLVQSGPALVKPTQTLTLTCTFGGFSLSRHGMRVTWIRQAPGKALEWLGHIDWDDDKFYRTSLKTRLTISKDPSNNEVVLKMTNMDHVDTATYYCALMRPFWSRDDYYYSIAVWGKGTTVTVSS VL: DIVLTQSPGTLSLSPGDRATLSCRASQSVGSGYVTWYQQKPGQAPRLLIYGASNRAEGIPDRFSGSGSGTDFTLTISGLESEDFVIYYCQLYHRSPGSASQTVWTFGQGTKVEIK	9.61 µg/mL	6.27 µg/mL	–	394 pM	2630 pM
ADI-18897 (antibody, V domains shown, full-length IgG from yeast) VH: EVQLVESGGGLVQPGGSLRLSCAASGFTIGTYWMSWVRQAPGKGLEWVANIKPDGSEQYYGDSVKGRFTISRDNAKNSLYLQMHSLRAEDAAVFYCARDTPDVLRHLEWPPVGAFDIWGQGTTVTVSS VL: EIVMTQSPDSLAVSLGERATINCKSSQSLFYSSTNQHYLAWYQQKPGQPPELLIYWASIRESGVPDRFSGSGSGTDFTLTISSLQAADVAVYYCQQYYSSPQTFGQGTKVEIK	0.288 µg/mL	0.762 µg/mL	–	185 pM	1530 pM
ADI-18976 (antibody, V domains shown, full-length IgG from yeast) VH: EVQLVETGPGLVKPSETLSLTCTVSGDSISGYYWSWIRQSPGKGLEWIGYIYYRGSTDYNPSLKSRVTISVDTSKNQFSLKLSSVTAADTAVYYCARDNKHHDSGNYYAYFDHWGQGTLVTVSS VL: DIVMTQSPSSLSASVGDRVTITCRASQNINTFLNWYQHKPGKAPKLLIYGASRLQSGVPSRFTGSGSGTDFTLTISSLQPEDFATYSCQQSYTTRLTFGGGTKVEIK	6.29 µg/mL	10.6 µg/mL	–	209 pM	1240 pM
ADI-18878 (antibody, V domains shown, full-length IgG from yeast; also called Antibody Number 235; Ab # 235) VH: QVQLQESGPRLVKPSQTLSLICDVSGGSIGSGDHYWSWIRQPPGKGLEWIGYIYYSGTTYYNPSLKSRVTISADTSKNQLSLKLSSVTAADTAIYFCARDGGYDHVWGTHRYFDKWGQGTLVTVSS VL: EIVLTQSPGTLSLSPGERATLSCRASQSVSNSYLAWYQQKPGQAPRLLIYGVSTRATGIPDRFSGSGSGTDFTLTISRLEPEDFAMYHCQQYGASPWTFGQGTKVDIK	> 10 µg/mL	8.31 µg/mL	–	388 pM	5820 pM
ADI-18970 (antibody, V domains shown, full-length IgG from yeast; also called Antibody Number 318; Ab # 318) VH: QVQLQESGPRLVKPSQTLSLTCTVSGGSISSGDYYWSWIRQPPGKGLEWIGYIYYSGSTHYNPSLKSRVSMSVDTAKNQFSLKLTSVTAADTAVYYCARDIGYGDHGTGSYYYGIEDWGQGTTVTVSS VL: DIVMTQTPATLSLSPGDRATLSCRASQNIMSYLAWYQHKPGQPPRLLIYDASYRAAGIPARFSGSGSGTDFTLTISSLEPEDFAVYYCQQRTNWITFGQGTRLEIK	> 10 µg/mL	0.333 µg/mL	–	412 pM	445 pM
ADI-18887 (antibody, V domains shown, full-length IgG from yeast; also called Antibody Number 242; Ab # 242) VH: QVQLVQSGAEVKRPGSSVKVSCKASGGTFSSYALSWVRQAPGQGLEWIGGIIPMHRVTNYAQKFRGRVTISADTSTSTAYLEVNSLRVEDTAMYYCARVFFGTCGGASCFPSDLWGQGTLVTVSS VL: EIVLTQSPSFVSASVGDGVTITCRASQAISSYLAWYQQKPGQAPKLLIYAASTLQGGVPSRFSGSGSGTHFTLTISSLQPEDFATYYCQQLHSDFQTFGPGTKVEIK	1.11 µg/mL	> 10 µg/mL	–	549 pM	12200 pM
ADI-18885 (antibody, V domains shown, full-length IgG from yeast; also called Antibody Number 241; Ab # 241) VH: EVQLQESGPGLVKPLQTLSVTCSVSGGSISSGDNYWSWIRQRPGKGLEWIGYIYYSGTTYYNPSLKSRVTISADRSKNQFSLKMNSLSAADTAVYYCARDGGYDHIWGTHRYFALWGQGTLVTVSS VL: ETTLTQSPGTLSLSPGERATLSCRASQSVNSDYLAWYQQKLGQAPRLLIYGVSNRATGIPDRFTGSGSGTDFTLTISRLEPEDFAVYHCQQYGTSPWTFGQGTKVEIK	0.376 µg/mL	8.63 µg/mL	–	307 pM	3890 pM
ADI-18909 (antibody, V domains shown, full-length IgG from yeast; also called Antibody Number 264; Ab # 264) VH: QVQLQESGPGLVKPSQTLSLTCTVSGRFLNSGDYYWSWIRQSPGKGLEWLGYIHHSGNTYYNPSLKSRLTISLDMSKNQFSLKLSSVTAADTAVYYCARDLGKPLWDGHYYYGVDVWGQGTTVTVSS VL: DIVMTQSPGTLSLSPGERATLSCRTSQNVNSNYLAWYQHKPGQAPRLLIYGASSRVTGIPDRFSGSGSGTDFTLTITRVESEDFAVYYCQVYSSSPPITFGQGTKVEIK	0.11 µg/mL	0.169 µg/mL	–	225 pM	288 pM
ADI-18941 (antibody, V domains shown, full-length IgG from yeast) VH: EVQLVESAAEVKKPGESLKISCKGSGYSFASHWIGWVRQMPGKGLELMGFIYPGDSDTRYNPSFQGQVTISADKSISTAYLQWTRLKASDTAMYYCGQAVAGGEYFHHWGQGTLVTVSS VL: DIVMTQSPATLSVSPGERATLSCRASQSLGSDLAWYQQKPGQTPRLLIYDASTRATGIPARFSGSGSGTEFTLTISSLQSEDFAVYYCQHYNNWPRGFGQGTKVEIK	> 10 µg/mL	> 10 µg/mL	19100 pM	645 pM	–
ADI-18950 (antibody, V domains shown, full-length IgG from yeast) VH: EVQLVESGPRLVRPSETLSLTCTVSGGFIKTSSYYWGWIRQPPGKGLEWIGSIYYAGTTYYNPSLQSRVTMSVDTSNNQFSLKLNSVTAADTAVYYCATAWTFDHWGQGTLVTVSS VL: EIVLTQSPATLSLSPGERATLSCRASQSLSNYLAWYQQKPGQAPRLLIYDASNRATGIPARFSGSGSGTDFTLTISSLEPEDFAVYYCQLRGHWPPTITFGQGTRLEIK	> 10 µg/mL	> 10 µg/mL	–	385 pM	4180 pM
